These results are taken from patent US20150299265A1 (Molecular Partners, published 2015).

The chains are these.
B1: DARPin #60 (designed binder)
chain: MRGSHHHHHHGSDLGVKLLWAAARGQDDEVRELLKAGADVNAKDFQGITPLHIAAQSGHLEIVEVLLKAGADVNAKDVTGDTPLHLAAQHGHLEIVEVLLKAGADVNAQDERGWTPADLAADWGHEDIAEVLQKLN
notes: monovalent
B2: DARPin #58 (designed binder)
chain: MRGSHHHHHHGSDLGFKLLFAAAKSQDDEVRILLAAGADVNAKDFQGVTSLHIAAQSGHLEIVEVLLKAGADVNAKDVTGDTPLHLAAQHGHLEIVEVLLKAGADVNAQDERGWTPADLAADWGHEDIAEVLQKLN
notes: monovalent
B3: DARPin #4 (designed binder)
chain: MRGSHHHHHHGSDLGVKLLWAAARGQDDEVRELLKAGADVNAKDFQGITPLHIAAQSGHLEIVEVLLKAGADVNAKDVTGDTPLHLAAQHGHLEIVEVLLKAGADVNAQDERGKTPADLAADWGHEDIAEVLQKLN
notes: The list of constructs skips DARPin #4
B4: DARPin #2 (designed binder)
chain: MRGSHHHHHHGSDLGVKLLWAAARGQDDEVRELLKAGADVNAKDFQGITPLHIAATSGHLEIVEVLLKAGADVNAKDITGETPLHHAADSGHLEIVEVLLKAGADVNAQDKAGVTPADLAAAWGHEDIAEVLQKLN
notes: monovalent
B5: DARPin #56 (designed binder)
chain: MRGSHHHHHHGSDLGQKLLIAASRGQDDEVRILLAAGADVNAKDFQGVTPLHIAAQSGHLEIVEVLLKAGADVNAKDVTGDTPLHLAAQHGHLEIVEVLLKAGADVNAQDERGWTPTDLAADWGHEDIAEVLQKLN
notes: monovalent
B6: DARPin #3 (designed binder)
chain: MRGSHHHHHHGSDLGIKLLFAAAKSQDDEVRILLAAGADVNAKDFQSVTPLHIAAQSGHLEIVEVLLKAGADVNAKDVTGDTPLHLAAQHGHLEIVEVLLKAGADVNAQDERGWTPADLAADWGHEDIAEVLQKLN
notes: monovalent
B7: DARPin #55 (designed binder)
chain: MRGSHHHHHHGSDLGIKLLIAASHGQDDEVRILLAAGANVNAKDFQGVTPLHIAAQSGHLEIVEVLLKAGADVNAKDVTGDTPLHLAAQHGHLEIVEVLLKAGADVNAQDERGWTPADLAADWGHEDIAEVLQKLN
notes: monovalent
B8: DARPin #6 (designed binder)
chain: MRGSHHHHHHGSDLGVNLLWAATRGQDDEVRILLAAGADVNAKDFEGVTPLHLAAQWGHLEIVEVLLKAGADVNAKDVTGDTPLHLAAQHGHLEIVEVLLKAGADVNAQDERGWTPADLAADWGHEDIAEVLQKLN
notes: monovalent
B9: DARPin #54 (designed binder)
chain: MRGSHHHHHHGSDLGIKLLFAAAKGQDDEVRELLKAGADVNAKDFQGVTPLHIAAQSGHLEIVEVLLKAGADVNAKDVTGDTPLHLAAQHGHLEIVEVLLKAGADVNAQDERGWTPADLAADWGHEDIAEVLQKLN
notes: monovalent
B10: DARPin #57 (designed binder)
chain: MRGSHHHHHHGSDLGIKLLWAAAQGQDDEVRILLAAGADVNAKDFQGVTPLHIAAQSGHLEVVEVLLKAGADVNAKDVTGDTPLHLAAQHGHLEIVEVLLKAGADVNAQDERGWTPADLAADWGHEDIAEVLQKLN
notes: monovalent
B11: DARPin #1 (designed binder)
chain: MRGSHHHHHHGSDLGVKLLWAAARGQDDEVRILLAAGADVNAKDFQGITPLHIAAQSGHLEIVEVLLKAGADVNAKDVTGDTPLHLAAQHGHLVIVEVLLKAGADVNAQDERGWTPADLAADWGHEDIAEVLQKLN
notes: monovalent
B12: DARPin #27 (designed binder)
chain: MRGSHHHHHHGSDLGVKLLWAAARGQDDEVRILLAAGADVNAKDFQGITPLHIAATNGHLEIVEVLLKAGADVNAKDITGETPLHHAADSGHLEIVEVLLKAGADVNAQDKAGVTPADLAAAWGHEDIAEVLQKLGGGGSGGGGSRSDLGIKLLQAANLGQDDEVRILLATGADVNAKDSIGQTPLHWAARRGHLEIVEVLLKAGADVNAKDEYGVTPLHLAASLGHLEIVEVLLKAGADVNAQDESGETPADLAALHGHEDIAEVLQKLN
B13: DARPin #68 (designed binder)
chain: MRGSHHHHHHGSDLGAKLLSDLGVKLLWAAARGQDDEVRILLAAGADVNAKDFQGITPLHIAAQSGHLEIVEVLLKAGADVNAKDVTGDTPLHLAAQHGHLVIVEVLLKAGADVNAQDERGWTPADLAADWGHEDIAEVLQKAAGSPTPTPTTPTPTPTTPTPTPTGSDLGKKLLEAARAGQDDEVRILMANGADVNAKDEYGLTPLYLATAHGHLEIVEVLLKNGADVNAVDAIGFTPLHLAAFIGHLEIAEVLLKHGADVNAQDKFGKTAFDISIGNGNEDLAEILQKAA
B14: DARPin #35 (designed binder)
chain: MRGSHHHHHHGSDLGIKLLFAAAKGQDDEVRILLAAGADVNAKDFEGYTPLHVAAYDGHLEIVEVLLKAGADVNAKDSQGRTPLHEAAYSGHLEIVEVLLKAGADVNAQDDAGETPADLAAAWGHEDIAEVLQKLGGGGSGGGGSRSDLGIKLLQAANLGQDDEVRILLATGADVNAKDSIGQTPLHWAARRGHLEIVEVLLKAGADVNAKDEYGVTPLHLAASLGHLEIVEVLLKAGADVNAQDESGETPADLAALHGHEDIAEVLQKLN
B15: DARPin #64 (designed binder)
chain: MRGSHHHHHHGSDLGKKLLEAARAGQDDEVRILMANGADVNAKDYFSHTPLHLAARNGHLKIVEVLLKAGADVNAKDFAGKTPLHLAANDGHLEIVEVLLKHGADVNAQDIFGKTPADIAADAGHEDIAEVLQKLGGGGSGGGGSGGGGSGGGGSRSDLGAKLLSDLGVKLLWAAARGQDDEVRILLAAGADVNAKDFQGITPLHIAAQSGHLEIVEVLLKAGADVNAKDVTGDTPLHLAAQHGHLVIVEVLLKAGADVNAQDERGWTPADLAADWGHEDIAEVLQKLGGGGSGGGGSRSDLGKKLLEAARAGQDDEVRILMANGADVNAKDEYGLTPLYLATAHGHLEIVEVLLKNGADVNAVDAIGFTPLHLAAFIGHLEIAEVLLKHGADVNAQDKFGKTAFDISIGNGNEDLAEILQKLN
B16: DARPin #65 (designed binder)
chain: MRGSHHHHHHGSDLGAKLLSDLGVKLLWAAARGQDDEVRILLAAGADVNAKDFQGITPLHIAAQSGHLEIVEVLLKAGADVNAKDVTGDTPLHLAAQHGHLVIVEVLLKAGADVNAQDERGWTPADLAADWGHEDIAEVLQKLGGGGSGGGGSRSDLGKKLLEAARAGQDDEVRILMANGADVNAKDEYGLTPLYLATAHGHLEIVEVLLKNGADVNAVDAIGFTPLHLAAFIGHLEIAEVLLKHGADVNAQDKFGKTAFDISIGNGNEDLAEILQKLNKLGGGGSGGGGSGGGGSGGGGSRSDLGKKLLEAARAGQDDEVRILMANGADVNAKDYFSHTPLHLAARNGHLKIVEVLLKAGADVNAKDFAGKTPLHLAANDGHLEIVEVLLKHGADVNAQDIFGKTPADIAADAGHEDIAEVLQKLN
B17: DARPin #63 (designed binder)
chain: MRGSHHHHHHGSDLGAKLLSDLGVKLLWAAARGQDDEVRILLAAGADVNAKDFQGITPLHIAAQSGHLEIVEVLLKAGADVNAKDVTGDTPLHLAAQHGHLVIVEVLLKAGADVNAQDERGWTPADLAADWGHEDIAEVLQKLGGGGSGGGGSRSDLGKKLLEAARAGQDDEVRILMANGADVNAKDEYGLTPLYLATAHGHLEIVEVLLKNGADVNAVDAIGFTPLHLAAFIGHLEIAEVLLKHGADVNAQDKFGKTAFDISIGNGNEDLAEILQKAAGGGSGGGSC
modifications: PEGylated at its C-terminal Cys residue
B18: DARPin #67 (designed binder)
chain: MRGSHHHHHHGSDLGAKLLSDLGVKLLWAAARGQDDEVRILLAAGADVNAKDFQGITPLHIAAQSGHLEIVEVLLKAGADVNAKDVTGDTPLHLAAQHGHLVIVEVLLKAGADVNAQDERGWTPADLAADWGHEDIAEVLQKAAGGGGSDLGKKLLEAARAGQDDEVRILMANGADVNAKDEYGLTPLYLATAHGHLEIVEVLLKNGADVNAVDAIGFTPLHLAAFIGHLEIAEVLLKHGADVNAQDKFGKTAFDISIGNGNEDLAEILQKAA
B19: DARPin #66 (designed binder)
chain: MRGSHHHHHHGSDLGAKLLSDLGVKLLWAAARGQDDEVRILLAAGADVNAKDFQGITPLHIAAQSGHLEIVEVLLKAGADVNAKDVTGDTPLHLAAQHGHLVIVEVLLKAGADVNAQDERGWTPADLAADWGHEDIAEVLQKAAGSDLGKKLLEAARAGQDDEVRILMANGADVNAKDEYGLTPLYLATAHGHLEIVEVLLKNGADVNAVDAIGFTPLHLAAFIGHLEIAEVLLKHGADVNAQDKFGKTAFDISIGNGNEDLAEILQKAA

One test deals with T1, Recombinant human HER2 ectodomain (human, UniProt P04626 23-652, biotinylated on primary amines (for SPR and crude extract ELISA)).
T1 construct: extracellular domain; also called ErbB2; ectodomain of human HER2; not shown: Flag tag
Put plainly: SPR (ProteOn); biotinylated human HER2 on neutravidin chip, monovalent DARPin injected. As for the experimental part: Protein binding kinetics of interesting purified HER2-binding DARPins were assayed by Surface Plasmon Resonance (SPR) analysis with a ProteOn array system (BioRad) using a setup, where biotinylated human HER2 was immobilized via neutravidin and the interaction was measured by adding free monovalent DARPin. The determination of Kd values was performed according to standard procedures.
SPR was measured using a ProteOn instrument (BioRad) and measurement was performed according standard procedures known to the person skilled in the art. The running buffer was PBS, pH 7.4, containing 0.005% Tween 20®. Neutravidin was covalently immobilized on a GLC chip (BioRad) to a level of about 8000 resonance units (RU). Immobilization of HER2 on the neutravidin coated chip was then performed. […] The signals (i.e. resonance unit (RU) values) of an uncoated reference cell and a reference injection (i.e. injection of running buffer only) were subtracted from the RU traces obtained after injection of […] (double-referencing). From the SRP traces obtained from the on-rate and off-rate measurements the on- and off-rate of the corresponding DARPin HER2 interaction can be determined.
Dissociation constants (Kd) were calculated from the estimated on- and off-rates using standard procedures known to the person skilled in the art.
On to B1, for which the Kd amounted to 0.0117 nM.
Same read-out and setting: under B2 stands 0.0413 nM.
On the same count and under the same terms, under B3 stands 0.186 nM.
On the same count and under the same terms, under B4 stands 0.875 nM; under B5, 2 nM; under B6, 0.0131 nM.
Consider B7, for which the Kd turned out to be 0.0873 nM.
Regarding B8, the Kd was found to be 0.0292 nM.
On the same count and under the same terms, under B9 stands 0.00927 nM; under B10, 0.0604 nM; under B11, 0.0781 nM.

A further test concerns the target Human HER2 expressed on tumour cells (human, UniProt P04626 23-1255). Put plainly: cell-based or functional assay.
Turning to B12, the “% activity vs. DARPin # 41, BT474 cell proliferation” value was found to be 37.8% and the “IC50 [nM], inhibition of BT474 cell proliferation (BrdU)” value (shortened to “IC50 [nM], inhibition”) amounted to 4.57 nM.
As for B13, the “% activity vs. DARPin # 41, BT474 cell proliferation” value came out at 100% and the “IC50 [nM], inhibition” value was 5.35 nM.
B14: the “% activity vs. DARPin # 41, BT474 cell proliferation” value was 63% and the “IC50 [nM], inhibition” value amounted to 4.63 nM.
In the case of B15, the “% activity vs. DARPin # 41, BT474 cell proliferation” value came to 100% and the “IC50 [nM], inhibition” value is 2.31 nM.
B16: the “% activity vs. DARPin # 41, BT474 cell proliferation” value is 100% and the “IC50 [nM], inhibition” value was 4.07 nM.
As for B17, the “% activity vs. DARPin # 41, BT474 cell proliferation” value was 100% and the “IC50 [nM], inhibition” value worked out at 1.77 nM.
Turning to B18, the “% activity vs. DARPin # 41, BT474 cell proliferation” value worked out at 100% and the “IC50 [nM], inhibition” value was determined as 4.87 nM.
For B19, the “% activity vs. DARPin # 41, BT474 cell proliferation” value amounted to 100% and the “IC50 [nM], inhibition” value was 4.06 nM.

Usually Kd stands for the equilibrium constant for the complex coming apart.
